Data published in paper PMC11093223, “Cargo selective vesicle tethering: The structural basis for binding of specific cargo proteins by the Golgi tether component TBC1D23” (Science Advances, 2024).

What was measured:
[1] = biological target: Mouse TBC1D23 (559-684), C-terminal domain (mouse) (UniProt Q8K0F1); test: ITC; peptide (0.8 to 5 mM) titrated into 100 uM TBC1D23 C-terminal domain, 20 injections of 2.4 ul; 20°C; 100 mM NaCl, 100 mM tris pH 7.4, 1 mM TCEP; mean of three runs
[2] = biological target: TBC1D23 C-terminal domain (mouse) (UniProt Q8K0F1); test: ITC; peptide (0.8 to 5 mM) titrated into 100 μM TBC1D23 C-terminal domain, 20°C, 100 mM NaCl, 100 mM tris pH 7.4, 1 mM TCEP, Nano ITC
TBC1D23 C-terminal domain (mouse), sequence (Q8K0F1 559-684): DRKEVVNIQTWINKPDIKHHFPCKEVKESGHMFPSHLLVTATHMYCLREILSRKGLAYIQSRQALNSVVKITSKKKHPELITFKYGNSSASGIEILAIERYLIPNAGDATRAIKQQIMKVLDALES

Mouse TBC1D23 (559-684), C-terminal domain (mouse), sequence (Q8K0F1 559-684): as above

Row | Substance | Kd [1] [µM] | Kd [2] [µM] | stoichiometry N [2]
1 | KIAA0319 peptide (acidic TLY motif of the tail) | – | 35 | –
2 | FAM174C peptide (TLY-like motif) | – | 16 | –
3 | CPD peptide (acidic TLY region, ITC) | – | 10.6 | 1
4 | NPDC1 peptide with the acidic TLY motif | 2.9 | – | –

The next lines start with the values.

Row | Kd [1] [µM] | Kd [2] [µM] | stoichiometry N [2] | Substance
5 | 35.2 | – | – | KIAA0319 peptide with the acidic TLY motif
6 | – | 3 | – | NPDC1 peptide (acidic TLY motif of the tail)
7 | 15.7 | – | – | FAM174C peptide with the acidic TLY motif
